Measurements reported in patent US20080131419A1.

How the values were obtained:
[1] = target: actin filaments (F-actin) of lily pollen tubes (lily (Lilium grandiflorum / Lilium longiflorum cv. Osnat)); assay: cell-based or functional assay
[2] = target: actin filaments (F-actin) of lily pollen tubes

B1: Aspergillus niger B1 extracellular RNase (RNase B1) (protein)
chain: TIDTCSSDSPLSCQTDNEASCCFNSPGGSLLQTQFWDYDPSDGPSGSWTIHGLWPDNCDGTYQEYCDESREYSNITSILEAQNRTELLSYMKEYWPDYEGADEDESFWEHEWNKHGTCINTIEPSCYTDYYAQEEVGDFFQQVVDLFKTLDSYTALSDAGITPSEDATYKLSDIEDALAAIHDGYPPYVGCEDGALSQLYYYFNVKGSAIGGTYVASERLEDSNCKDSGIKYPPKYSSSKKIYGSSL
inhibition of lily pollen tube elongation, 1 uM enzymatically heat-inactivated RNase B1 (EI-RNase B1) [1]: 55%
actin filament distribution in pollen tubes (TRITC-phalloidin staining) [2]: in RNase-treated pollen tubes masses of F-actin were accumulated at the tip cell wall
lily pollen tube length in vitro, RNase B1 100 units/ml (16 ug/ml), 2 h (control about 300 um) [2]: reached only 160 µm in length
lily pollen tube length in vitro, autoclaved RNase B1 (control about 300 um) [2]: Boiling or autoclaving the RNase yielded pollen tubes of 130 and 170 µm in length, respectively
lily pollen tube length in vitro, boiled RNase B1 (control about 300 um) [2]: Boiling or autoclaving the RNase yielded pollen tubes of 130 and 170 µm in length, respectively
